Measurements from article PMC11774494.

Target: 17b (CD4-induced human monoclonal antibody)
Assay: flow cytometry of transfected 293T cells: staining with 10 μg/ml 17b with or without sCD4-183, detection with APC anti-human IgG F(ab')2, arithmetic mean APC fluorescence of live (propidium iodide negative) single cells; 'All titrations …
Details: sCD4-183 at 0, 0.078125, 0.3125, 1.25, 5, 20, 80 μM (row value in value_extra.sCD4_183_uM), 20 min staining at room temperature, CAUTION: 17b staining of cell-surface trimers with sCD4, mostly reports trimer opening, normalized per Env, one titration each. Higher = more 17b staining of cell-surface Env. 17b's epitope is exposed, numbering: unknown, sequence starts at 1
[1] = AUC over sCD4-183 0-80 μM, parent: 0.907, scale: area under the normalized MFI curve, log10 x-axis
[2] = sCD4-183 0 μM, parent: 0.0187, scale: normalized MFI
[3] = sCD4-183 0.078125 μM, parent: 0.0465, scale: normalized MFI
[4] = sCD4-183 0.3125 μM, parent: 0.0578, scale: normalized MFI
[5] = sCD4-183 1.25 μM, parent: 0.0973, scale: normalized MFI
[6] = sCD4-183 5 μM, parent: 0.198, scale: normalized MFI
[7] = sCD4-183 20 μM, parent: 0.585, scale: normalized MFI
[8] = sCD4-183 80 μM, parent: 1, scale: normalized MFI

| Substance | screen value [1] | screen value [2] | screen value [3] | screen value [4] | screen value [5] | screen value [6] | screen value [7] | screen value [8] |
| --- | --- | --- | --- | --- | --- | --- | --- | --- |
| HIV-1 JR-CSF envelope glycoprotein gp160 (Env), P20871 JR-CSF_D167A | 2.23 | 0.0723 | 0.181 | 0.357 | 0.663 | 0.945 | 0.977 | 1 |
| HIV-1 JR-CSF envelope glycoprotein gp160 (Env), P20871 JR-CSF_T202A | 2.71 | 0.144 | 0.403 | 0.617 | 0.843 | 1 | 0.973 | 0.97 |
| HIV-1 JR-CSF envelope glycoprotein gp160 (Env), P20871 JR-CSF_H308A | 0.82 | 0.0195 | 0.0512 | 0.0642 | 0.0948 | 0.178 | 0.449 | 1 |
| HIV-1 JR-CSF envelope glycoprotein gp160 (Env), P20871 JR-CSF_I323A | 2.75 | 0.211 | 0.421 | 0.606 | 0.838 | 0.988 | 1 | 0.946 |
| HIV-1 JR-CSF envelope glycoprotein gp160 (Env), P20871 JR-CSF_N156A | 2.72 | 0.272 | 0.437 | 0.595 | 0.796 | 0.913 | 1 | 0.984 |
